From paper PMC4902571
Values belong to the substance of their own block, whether it stands above or below them.

Columns and labels:
[1] = target: Src13-GCN4-EGFRk: c-Src membrane localization sequence, coiled-coil segment of GCN4 joined to the N-terminus of the kinase domain of EGFR, EGFP or mCherry (UniProt P00533); test: PIE-FCCS (pulsed-interleaved excitation fluorescence cross-correlation spectroscopy); control constructs with the c-Src membrane localization sequence, EGFP and mCherry fusions coexpressed; data collected previously on the same instrument and reproduced here; median fraction correlated fc
[2] = target: EGFR-EGFP with deletion of the dimerization arm, residues 242 to 259 (human) (UniProt P00533); test: single-molecule stepwise photobleaching (TIRF microscopy); EGFP fusions on the membrane of live Xenopus oocytes, without EGF; ~1 to ~5 molecules per um^2; room temperature; 20 Hz; 3% two-step baseline (Claudin-16) subtracted
[3] = target: Src13-GCN4: c-Src membrane localization sequence, coiled-coil segment of GCN4, EGFP or mCherry; test: PIE-FCCS (pulsed-interleaved excitation fluorescence cross-correlation spectroscopy); control constructs with the c-Src membrane localization sequence, EGFP and mCherry fusions coexpressed; data collected previously on the same instrument and reproduced here; median fraction correlated fc

fraction correlated fc (median) [1]: 0.23
Substance: Src13-GCN4-EGFRk: c-Src membrane localization sequence, coiled-coil segment of GCN4 joined to the N-terminus of the kinase domain of EGFR, EGFP or mCherry (from UniProt P00533 712-979)

fraction of two-step photobleaching events (baseline subtracted) [2]: 9%
Substance: EGFR-EGFP with deletion of the dimerization arm, residues 242 to 259 (from UniProt P00533 25-1210) (receptor)

fraction correlated fc (median) [3]: 0.13
Substance: Src13-GCN4: c-Src membrane localization sequence, coiled-coil segment of GCN4, EGFP or mCherry
